Entries after “also recorded” stand apart in the source; their conditions may differ.
B1: RNase7: recombinant full-length human Ribonuclease 7, amino acids 1-128 (SEQ ID NO: 1), N-terminal His tag (protein, listed as Homo sapiens)
chain: KPKGMTSSQWFKIQHMQPSPQACNSAMKNINKHTKRCKDLNTFLHEPFSSVAATCQTPKIACKNGDKNCHQSHGPVSLTMCKLTSGKYPNCRYKEKRQNKSYVVACKPPQKKDSQQFHLVPVHLDRVL
modifications: N-terminal His tag
B2: F:1-97: recombinant N-terminal RNase 7 fragment, amino acids 1 to 97 (SEQ ID NO: 5), N-terminal His tag (protein, listed as Homo sapiens)
chain: KPKGMTSSQWFKIQHMQPSPQACNSAMKNINKHTKRCKDLNTFLHEPFSSVAATCQTPKIACKNGDKNCHQSHGPVSLTMCKLTSGKYPNCRYKEKR
modifications: N-terminal His tag

Key:
[1] = system: E. coli; experiment: Urinary condition functional assay (OD600 growth curves); format: cell-based, Escherichia coli; conditions: for activity on E. coli growth at various pH levels / activity on E. coli growth at various CaCl2 titers: 2 μM peptide; for activity on E. coli growth at various pH levels: 1% peptone water, pH 5, 7, 9, OD600 for 10 hours, FIG. 3; for activity on E. coli growth at various NaCl titers: 2 μM peptide, 50, 150, 500 mM NaCl, FIG. 4; for activity on E. coli growth at various NaCl titers / activity on E. coli growth at various CaCl2 titers: OD600 for 10 hours; for activity on E. coli growth at various CaCl2 titers: CaCl2 up to 16.25 mM, FIG. 5
Protocol: (§1) Because the urinary environment can have significant variation in salt concentration, ionic composition, and pH, an antimicrobial/bacteriostatic assay was performed to evaluate if pH, calcium, or ionic strength affects the activity of full-length RNase7 or its fragments. The highest activity fragment F:1-97 and lowest activity fragment F:72-128 for these experiments were chosen. Bacteria were inoculated in 1% peptone water and growth to log phase with OD600=0.5. Bacteria were diluted to 1:10 and 1 μl added to 100 μl of 1% peptone water with various pH, CaCl2 or NaCl concentrations that correspond to a physiologic range present in the urine in a 96-well flat bottom plate (Thermo Scientific, Nunc, Worcester, Mass.). To each well, 2 μM of RNase7 or its fragments were added.
(§2) Bacterial growth was monitored using an Absorbance microplate reader (BioTek Instruments, Winooski, Vt.) at a final volume of 110 μl. The turbidity of the culture was measured and recorded at t=0 and every 20 min thereafter for 10 hours using the absorbance at 600 nm (OD600). The values of OD600 values were plotted against times to generate growth curves.

[2] = system: S. saprophyticus; experiment: as above; format: cell-based, Staphylococcus saprophyticus; conditions: for activity on S. saprophyticus growth at various NaCl titers: 2 μM peptide, 50, 150, 500 mM NaCl, FIG. 7; for activity on S. saprophyticus growth at various NaCl titers / activity on S. saprophyticus growth at various CaCl2 titers: OD600 for 10 hours; for activity on S. saprophyticus growth at various CaCl2 titers / activity on S. saprophyticus growth at various pH levels: 2 μM peptide; for activity on S. saprophyticus growth at various CaCl2 titers: CaCl2 up to 16.25 mM, FIG. 8; for activity on S. saprophyticus growth at various pH levels: pH 5, 7, 9, OD600 for 10 hours, FIG. 6
Protocol: as §1, §2

[3] = system: E. coli (UTI-89); experiment: Live/Dead BacLight bacterial viability assay (confocal imaging); format: cell-based, Escherichia coli; conditions: 1 μM
Protocol: (§3) Bacterial viability assays were performed using a Live/Dead BacLight™ bacterial viability kit (Invitrogen). Uropathogenic E. coli (UTI-89) and S. Saprophyticus (ATCC 15305) were grown at 37° C. to the mid-log phase, centrifuged at 5000 rpm for 5 min, and resuspended in water with an OD=0.2. Bacteria were stained using a 1:1 mixture of a green-fluorescent STY®9 dye and a red-fluorescent propidium iodide dye as provided in the Live/Dead BacLight™ bacterial viability kit. SYTO®9 labels both live and dead bacteria. Propidium iodide penetrates only bacteria with damaged membranes. Consequently, live bacteria with intact membranes fluoresce green, while dead bacteria with damaged membranes fluoresce red. […]. 50 uL of stained uropathogenic bacteria was mixed with recombinant RNase 7 or RNase 7 fragments to achieve a final concentration of 3 uM and 1 uM. 10 uL of this mixture was added to poly-1-lysine coated microscope slides (Polysciences, Inc, Warrington, Pa., USA) and confocal images of the bacteria were obtained using a Zeiss LSM 700 confocal laser scanning microscope (Carl Zeiss LLC, Thornwood, N.Y., USA). SYTO®9 was excited using an argon laser (448-500 nm emission collected) and propidium iodide was excited using an orange diode (555-600 nm emission collected). Samples were imaged in triplicate.
(§4) For images of intact versus disrupted membranes of dying/dead cells, the Live/Dead BacLight™ bacterial viability kit (Invitrogen) was used. E. coli and S. saprophyticus were grown at 37° C. to the mid-log phase, centrifuged at 5000 rpm for 5 min, and resuspended in water to an OD600 of 0.2. Bacteria were incubated in a 1:1 mixture of Live/Dead BacLight™ bacterial viability assay. A bacterial aliquot of 50 μL was mixed with recombinant RNase 7 or recombinant fragments to achieve a final concentration of 1 μM. Ten microliters of this mixture was added to poly-1-lysine coated microscope slides (Polysciences, Inc, Warrington, Pa., USA), and images were obtained in triplicate using a Zeiss LSM 710 confocal laser scanning microscope (Carl Zeiss LLC, Thornwood, N.Y., USA).

[4] = system: S. Saprophyticus (ATCC 15305); experiment: as above; format: cell-based, Staphylococcus saprophyticus; conditions: 1 μM
Protocol: as §3, §4

[5] = system: Proteus mirabilis (ATCC 7002); experiment: Antimicrobial kill (microdilution) assay, MIC/MBC by CFU count; format: cell-based; conditions: for P. mirabilis MIC: lowest concentration that inhibits the growth of 90% of the inoculation; for P. mirabilis MIC / P. mirabilis MBC: 3 hours, 0.1×PBS; for P. mirabilis MBC: minimum bactericidal concentration
Protocol: Uropathogenic Escherichia coli (UTI89) was grown in Luria broth (LB) medium and plated on LB-agar. Uropathogenic Staphylococcus saprophyticus (ATCC 15305) was grown in LB and plated on Trypticase Soy Agar with 5% sheep blood (Fisher Scientific, Pittsburgh, Pa., USA). Uropathogenic Proteus mirabilis (ATCC 7002) was grown in LB and plated on MacConkey II Agar (Fisher Scientific, Pittsburgh, Pa., USA). These organisms were chosen as the primary organisms that account for a majority of Gram-negative and Gram-positive urinary tract infections (UTI). Anti-RNase 7 antibody was generated in rabbit with recombinant human RNase 7 (Biomatik, Wilmington, Del., USA)
(§5) Antimicrobial activities of the recombinant peptides were estimated with a microdilution assay. Briefly, the test bacteria (10^4 CFUs) were incubated with various concentrations of RNase 7 and each fragment in 50 ul 0.1×PBS buffer for 3 hours at 37° C. After incubation on Agar plates overnight at 37° C., the number of colony-forming units (CFUs) at each peptide concentration was determined. Using untreated bacterial aliquots as baseline, the minimum inhibition concentration (MIC) was defined as the lowest concentration that inhibits the growth of 90% of the inoculation, and the minimum bactericidal concentration (MBC) was defined as the lowest concentration at which less than 99.99% of the initial inoculum is viable.

[6] = system: Proteus mirabilis; experiment: Urinary condition functional assay (OD600 growth curves); format: cell-based; conditions: for activity on Proteus mirabilis growth at various CaCl2 titers: 2 μM peptide, 1.25, 7.5, 16.25 mM CaCl2, OD600 for 10 hours, FIG. 11; for activity on Proteus mirabilis growth at various NaCl titers: 2 μM peptide, 50, 150, 500 mM NaCl, OD600 for 10 hours, FIG. 10; for activity on Proteus mirabilis growth at various pH levels: 2 μM peptide, pH 5, 7, 9, OD600 for 10 hours, FIG. 9
Protocol: as §1, §2

[7] = system: Escherichia coli (UTI89); experiment: Antimicrobial kill (microdilution) assay, MIC/MBC by CFU count; format: cell-based; conditions: for E. coli MIC: lowest concentration that inhibits the growth of 90% of the inoculation; for E. coli MIC / E. coli MBC: 3 hours, 0.1×PBS; for E. coli MBC: minimum bactericidal concentration; for antimicrobial activity against E. coli (in words): MIC/MBC based, mostly compared to full-length RNase 7
Protocol: (§6) The antimicrobial activity of RNase 7 and its fragments was estimated using a microdilution assay. Briefly, test bacteria (10^5) were incubated with several concentrations of RNase 7 and each fragment in 50 μl 0.1×PBS buffer for 3 hours in a 37° C. incubator. Each reaction was plated on the appropriate medium and grew overnight at 37° C. The antimicrobial activity was determined by the number of colony-forming units (CFUs) the following day. The minimum inhibition concentration (MIC) is defined as the lowest concentration that inhibits the growth of 90% of the inoculation and the minimum bactericidal concentration (MB C) is defined as the lowest concentration at which less than 99.99% of the initial inoculum is viable.
as §5

[8] = system: Staphylococcus saprophyticus (ATCC 15305); experiment: as above; format: cell-based; conditions: for S. saprophyticus MIC: lowest concentration that inhibits the growth of 90% of the inoculation; for S. saprophyticus MIC / S. saprophyticus MBC: 3 hours, 0.1×PBS; for S. saprophyticus MBC: minimum bactericidal concentration; for antimicrobial activity against S. saprophyticus (in words): MIC/MBC based, mostly compared to full-length RNase 7
Protocol: as §6, §5

[9] = compared to full-length RNase 7

| Molecule | activity on E. coli growth at various pH levels [1] | activity on E. coli growth at various NaCl titers [1] | activity on E. coli growth at various CaCl2 titers [1] | activity on S. saprophyticus growth at various NaCl titers [2] | activity on S. saprophyticus growth at various CaCl2 titers [2] | activity on S. saprophyticus growth at various pH levels [2] | killing of E. coli in Bacterial Viability Assay ([3]; 30 min) | killing of E. coli in Bacterial Viability Assay ([3]; 3 hours) | killing of S. saprophyticus in Bacterial Viability Assay ([4]; 30 min) | killing of S. saprophyticus in Bacterial Viability Assay ([4]; 3 hours) | P. mirabilis MIC [5] | P. mirabilis MBC [5] | activity on Proteus mirabilis growth at various CaCl2 titers [6] | activity on Proteus mirabilis growth at various NaCl titers [6] | activity on Proteus mirabilis growth at various pH levels [6] | E. coli MIC [7] [µM] | E. coli MBC [7] [µM] | S. saprophyticus MIC [8] [µM] | S. saprophyticus MBC [8] | further results |
| --- | --- | --- | --- | --- | --- | --- | --- | --- | --- | --- | --- | --- | --- | --- | --- | --- | --- | --- | --- | --- |
| B1 | pH 9 (dotted line) decreases full-length RNase 7 activity; also recorded: activity was optimal at pH 7 against E. coli | activity was not different at 50 and 150 mM NaCl | activity is inversely related to CaCl2 concentration; also recorded: significantly reduced full-length RNase 7 activity against all uropathogens | diminished in direct proportion to NaCl concentration; also recorded: activity inversely related to NaCl concentration | significantly reduced full-length RNase 7 activity against all uropathogens; also recorded: activity is inversely related to CaCl2 concentration | activity is potent at all pH; also recorded: maintained high activity at pH 5 | did not | completely dead | did not | completely dead | .88 µM | .88 µM | significantly reduced full-length RNase 7 activity against all uropathogens; also recorded: activity is significantly diminished at higher CaCl2 concentrations but relatively unaffected at 1.25 mM concentration | diminished significantly with additional of any NaCl titer; also recorded: activity markedly diminished at all salt concentrations | maintained high activity at pH 5; also recorded: activity is potent at pH 5 | 0.26 | 0.53 | 0.22 | .44 µM | MIC for P. mirabilis [5]: 0.88 µM; antimicrobial activity against P. mirabilis (in words) ([5]; MIC/MBC based, mostly compared to full-length RNase 7): MIC and MBC values that were identical; MIC against E. coli [7]: 0.26 µM; MIC for E. coli ([7]; E. coli UTI89): 0.26 LM; MIC for S. saprophyticus [8]: 0.22 µM |
| B2 | activity pattern comparable to full-length peptide at various pHs | activity pattern comparable to full-length peptide at various NaCl concentrations | activity pattern comparable to full-length peptide at various CaCl2 concentrations; also recorded: sensitive to CaCl2 concentrations | diminished in direct proportion to NaCl concentration; also recorded: activity pattern comparable to full-length peptide at various NaCl concentrations | sensitive to CaCl2 concentrations; also recorded: activity is inversely related to CaCl2 concentration but more pronounced compared to full length RNase 7 | optimal activity at pH 5 | killed most of the E. coli and S. saprophyticus | completely dead | killed most of the E. coli and S. saprophyticus | completely dead | .44 µM | .88 µM | unchanged activity under all conditions against P. mirabilis; also recorded: activity is not significantly altered by CaCl2 concentrations | activity pattern comparable to full-length peptide at various NaCl concentrations | optimal activity at pH 5 (gray squares), but less compared to full length | 0.07 | 0.14 | 0.04 | 0.08 µM | antimicrobial activity against E. coli (in words) [7]: decreased relative to the full-length peptide; antimicrobial activity against E. coli (in words) ([7]; listed as 1-97): strongest activity; also recorded: increased activity against both strains; MICs and MBCs fold lower than full length protein, E. coli [7, 9]: at least 4 fold; antimicrobial activity against S. saprophyticus (in words) [8]: decreased relative to the full-length peptide; antimicrobial activity against S. saprophyticus (in words) ([8]; listed as 1-97): increased activity against both strains; MICs and MBCs fold lower than full length protein, S. saprophyticus [8, 9]: at least 4 fold |
